Test results: the supplement of paper PMC12042874
± gives the uncertainty stated by the source.

Test: amyloid nucleation score (Sup35N fusion, yeast selection) (log enrichment); library NNK1; higher = more nucleation; inactive = no reads after selection
In short: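 Plasmid inserts were Illumina-sequenced at input and output from psi-negative yeast expressing Sup35N fused to peptides of 20 random codons. The yeast were induced with 100 μM copper sulfate for 24 hours and grown 7 days at 30°C on medium lacking adenine and uracil, and sequences with under 100 input reads were excluded. Nucleation score is the DiMSum log enrichment of output over input reads, centred on the mode score of non-aggregating sequences.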

SSGQLSNKYC and DLDCFRFVLSLGDFMGRCVS are within error of each other in amyloid nucleation score: 0.786 ± 0.46 for the first, 0.266 ± 0.42 for the second.

TVDGTECCWVDTRNNSRMVK and FVMFLPIYEF are within error of each other in amyloid nucleation score: -0.941 ± 0.78 for the first, -0.35 ± 0.8 for the second.

VLIKLCGYTILIRFGRFLCR and PCYWQPPRRVAVATLSAAAL are within error of each other in amyloid nucleation score: -0.203 ± 0.61 for the first, -0.312 ± 0.49 for the second.

VVTSLIL and DSNFVTGWMTSIMLRVGVLR are within error of each other in amyloid nucleation score: -0.999 ± 1.2 for the first, 0.514 ± 1.2 for the second.

Compared with RARDIKWGCLFVCLTCMSTG, VLLFVRLILWTEGRYNCIMG is lower in amyloid nucleation score: 3.76 ± 0.067 for the first, -0.801 ± 1.2 for the second.

Going from PKRPMWLIQET to SIIFGVKTFSVFSKIYGLCW, the amyloid nucleation score rises from -0.571 ± 0.61 to 3.3 ± 0.067.

Compared with CSCACCVELHQL, RGSNAMDYSEVFCWMYNDLL is lower in amyloid nucleation score: 6.611 ± 0.062 for the first, 1.11 ± 0.58 for the second.

NTTAWPVYFYLWFRKTGWPL and RQSWPGYFVCSYQCVRMGNR are within error of each other in amyloid nucleation score: -0.371 ± 0.78 for the first, -0.084 ± 0.3 for the second.

NLCRSNTRVQNAKKCAL and CRAQGFDASSHYCYLFLALS are within error of each other in amyloid nucleation score: -0.168 ± 0.26 for the first, -0.427 ± 1.4 for the second.

PFFTIKWCNFSSFIGYEPLL and AMFNIW are within error of each other in amyloid nucleation score: -0.161 ± 0.31 for the first, -0.328 ± 0.47 for the second.

ISIIVVKFDMLLSNHHNSDA and LASTVSDWN are within error of each other in amyloid nucleation score: 0.486 ± 0.58 for the first, 0.32 ± 0.39 for the second.

First: IQSSPIR
Second: YVSYVCLDWM
The amyloid nucleation score of the first is lower: 0.464 ± 0.88 for the first, 6.7 ± 0.068 for the second.

ALFVVCYRYFVESGTKWRRT and CQPLLSMYLVHYTA are within error of each other in amyloid nucleation score: -0.009 ± 0.28 for the first, 0.116 ± 0.2 for the second.

First: FGHKKPVGLTGLNGFSGTGV
Second: PKKLRMYLPMHLSTPKRRLV
The amyloid nucleation score of the first is higher: 1.91 ± 0.63 for the first, 0.565 ± 0.58 for the second.

EERVFVYRLWYQSLVRHYEL and RDCWQ are within error of each other in amyloid nucleation score: -0.204 ± 0.41 for the first, -0.571 ± 0.3 for the second.

YVCGGWCVRVVRQVGYVNL and KVVSGA are within error of each other in amyloid nucleation score: 0.421 ± 0.55 for the first, 0.879 ± 0.53 for the second.

Going from SIYEVEGVTLGLEEHNMKGE to FGYSAGHERMVHCVGLRSSG, the amyloid nucleation score rises from -0.43 ± 0.43 to 1.37 ± 0.69.

NVVSF and LSYMGGIPGVLHVMPDAFTV are within error of each other in amyloid nucleation score: -0.466 ± 1.2 for the first, -0.077 ± 0.7 for the second.

FGLIVQTIMFRWHQKGSNFE and LCVNERVHQSLSRQRIPNCL are within error of each other in amyloid nucleation score: -1.05 ± 2.7 for the first, 1.26 ± 0.61 for the second.

YFVLKCSC and FVSNYYYV are within error of each other in amyloid nucleation score: 2.05 ± 0.49 for the first, 1.95 ± 0.17 for the second.

SWCPSQEWFMRYVFSTMCRT and QCGEICLCRSAGVVHSPRGW are within error of each other in amyloid nucleation score: 0.302 ± 0.57 for the first, -0.513 ± 0.55 for the second.

FVAVNILDMMKAYKLFENLF and TGFKI are within error of each other in amyloid nucleation score: -0.256 ± 0.22 for the first, -0.973 ± 0.97 for the second.

Going from GLRATVYITLRFE to LASLDLCVISLMNNHVDRTD, the amyloid nucleation score rises from -0.442 ± 0.43 to 0.94 ± 0.29.

YSRISKRVSRKGQSRNCHSG and YFSTRKYTSKGYCVRTLFAY are within error of each other in amyloid nucleation score: -0.413 ± 0.52 for the first, -0.406 ± 0.27 for the second.

Going from ILISVSLNMWY to FYSCIYYGHMLVELPDMLEL, the amyloid nucleation score falls from 2.43 ± 0.13 to -0.056 ± 0.35.

Going from PFGDSAPKTIRIMAVLIFTV to YGISVMIYDRPAISACQIKH, the amyloid nucleation score rises from -0.237 ± 1.9 to 2.71 ± 0.11.

WSDYVDNPSVSARRSRQFRL and YVEFVFNIYSARFEWLLI are within error of each other in amyloid nucleation score: -1.21 ± 1.6 for the first, -0.463 ± 0.75 for the second.

Going from WDHQNMNLYYIKYGMVMNQS to TTGKFDLFGDYHRGSLYSSV, the amyloid nucleation score falls from 3.17 ± 0.067 to -0.768 ± 0.49.

MCDDHWFPAIYKRLVSSNKQ and ELTYFGNI are within error of each other in amyloid nucleation score: 1.87 ± 0.57 for the first, 1.5 ± 0.24 for the second.

TRFLGYWADLSICMPSYGCR and FMLWCQFKRDNIKRTDRLAV are within error of each other in amyloid nucleation score: -0.209 ± 1 for the first, 1.46 ± 0.78 for the second.

NRACRMMQWS and TGSTR are within error of each other in amyloid nucleation score: -0.441 ± 1.2 for the first, 0.391 ± 0.22 for the second.

Going from PAFFCFWNNLSCVSTWSYLV to WFTDLRNRGVVNTYTPIV, the amyloid nucleation score falls from 2.44 ± 0.088 to -0.131 ± 0.29.

PCWLQMSCR and TLDFMLIKLSERLHLRC are within error of each other in amyloid nucleation score: -0.148 ± 0.79 for the first, 0.589 ± 0.3 for the second.

KKVGRHFDLCALDRTQSGCW and DFLDNVFVTSECHVN are within error of each other in amyloid nucleation score: -0.162 ± 0.39 for the first, 0.255 ± 0.6 for the second.

Going from FINVAFGCVYVRTNCLRMEG to NDEQAVQFNIGETGVSYCFL, the amyloid nucleation score falls from 7.116 ± 0.059 to 0.162 ± 0.77.

LLIGWASEDHRYKGISNGGG and YVGQGPGSLLTTGWVRYSL are within error of each other in amyloid nucleation score: 0.598 ± 0.34 for the first, -0.137 ± 0.6 for the second.

First: NMINLMGTKVDMYCRRVRGI
Second: RDLTKSDLMSVNAYMVIYRW
The amyloid nucleation score of the first is lower: -1.53 ± 0.84 for the first, 0.382 ± 0.31 for the second.

CSRVVWLVIRLLEMWIEPRA and KVFLRMQRSSGTVKCKSQTE are within error of each other in amyloid nucleation score: 0.815 ± 0.73 for the first, -0.065 ± 0.41 for the second.

First: HWSSFPNVLYIM
Second: PSGWTFSRGLSCDNVSRLSS
The amyloid nucleation score of the first is lower: -0.106 ± 0.44 for the first, 1.05 ± 0.61 for the second.

For ASYTIND, the amyloid nucleation score was -0.57 ± 1.1.

With GTHTEYSQKTVLVDIFTELM the amyloid nucleation score was “inactive”.
With GFDIMYLILTPSCPATQSGM the amyloid nucleation score was “inactive”.
With DSRCGPM the amyloid nucleation score was “inactive”.
For SATTIFFRYSKIREFRLVFG, the amyloid nucleation score was “inactive”.
In the case of ELSNRVRTEFVCIRTLVEDN, the amyloid nucleation score is reported as “inactive”.
In the case of CRGNDKVLPKIGATNCWLST, the amyloid nucleation score is reported as “inactive”.
In the case of DGHGRYA, the amyloid nucleation score is reported as “inactive”.
In the case of TCIVSWWYSQDGSWEMCLQR, the amyloid nucleation score is reported as “inactive”.
